This data set concerns mouse anti-6×His antibody alkaline phosphatase (AP) conjugate. Kind of data set: ELISA for light-induced reversible binding of an immunoglobulin to ProtL^Caf-ABD fusion proteins. The conditions noted are these: for change in enzyme activity of bound Ig-AP conjugate after irradiation with UV light: UV light at 365 nm, 5 min; for affinity for the IgG (ELISA signal): ground state / illuminated with visible light. On the procedure:
ELISA was performed at ambient temperature in a 96-well Maxisorb microtiter plate (Nunc, Langenselbold, Germany).
Then, the wells were blocked with […] Roti-Block (Carl Roth, Karlsruhe, Germany) diluted 1:10 in ddH2O for 1 h and washed three times with PBS containing 0.1% v/v Tween 20 (PBS/T). After that, the purified ProtL^Caf-ABD fusion protein from Example 11 was applied in a dilution series in PBS/T and incubated for 1 h to effect complex formation between the ABD moiety and the pre-adsorbed HSA. The wells were then washed three times with PBS/T and incubated with 50 μl of a 1:1000 dilution in PBS/T of the aforementioned mouse anti-6×His Ig-AP conjugate.
All subsequent washing steps were performed in the dark. […] After 5 min at 25° C., the absorbance at 405 nm was measured using a SpectraMax 250 microtiter plate reader (Molecular Devices, Sunnyvale, Calif., USA).
On the technique in general: ELISA stands for enzyme-linked immunosorbent assay.

Numbered stars: 1 amine (or outer) side, 2 acyl side, 3 side chain; on linkers, the order of the positions; unused ones are H or OH. Square brackets hold non-standard residues; d marks the D form. Caf = 4′-carboxyphenylazophenylalanine, O=C([C@H](Cc1ccc(/N=N/c2ccc(C(=O)[*:3])cc2)cc1)N[*:1])[*:2]

B1: ProtL^Caf368: ProtL-ABD fusion protein modified with Caf at position 368 (protein)
chain: MKEEVTIKVNLIFADGKTQTAEFKGTFEEATAKAYAYADLLAK[Caf]NGEYTADLEDGGNTINIKFAGGAVDANSLAEAKVLANRELDKYGVSDYYKNLINNAKTVEGVKALIDEILAALP
Regarding B1, the “change in enzyme activity of bound Ig-AP conjugate after irradiation with UV light” value is “much less signal decrease”.

B2: ProtL-ABD: unmodified protein L domain B1 fused to a human albumin-binding domain (SEQ ID NO: 61) (protein)
chain: MKEEVTIKVNLIFADGKTQTAEFKGTFEEATAKAYAYADLLAKENGEYTADLEDGGNTINIKFAGGAVDANSLAEAKVLANRELDKYGVSDYYKNLINNAKTVEGVKALIDEILAALP
modifications: ProtL-ABD fusion protein
With B2, the “change in enzyme activity of bound Ig-AP conjugate after irradiation with UV light” value is given as “did not reveal any change in binding activity”.

B3: ProtL^Caf347: ProtL-ABD fusion protein with Caf at position 347 and mutation Tyr361Ala (protein)
chain: MKEEVTIKVNLIFADGKTQTAE[Caf]KGTFEEATAKAYAAADLLAKENGEYTADLEDGGNTINIKFAGGAVDANSLAEAKVLANRELDKYGVSDYYKNLINNAKTVEGVKALIDEILAALP
On to B3, for which the “change in enzyme activity of bound Ig-AP conjugate after irradiation with UV light” value is recorded as “much less signal decrease”.

B4: ProtL^Caf360: ProtL-ABD fusion protein modified with Caf at position 360 (protein)
chain: MKEEVTIKVNLIFADGKTQTAEFKGTFEEATAKAY[Caf]YADLLAKENGEYTADLEDGGNTINIKFAGGAVDANSLAEAKVLANRELDKYGVSDYYKNLINNAKTVEGVKALIDEILAALP
As for B4, the “change in enzyme activity of bound Ig-AP conjugate after irradiation with UV light” value is “much less signal decrease”.

B5: ProtL^Caf364: ProtL-ABD fusion protein modified with Caf at position 364 (protein)
chain: MKEEVTIKVNLIFADGKTQTAEFKGTFEEATAKAYAYAD[Caf]LAKENGEYTADLEDGGNTINIKFAGGAVDANSLAEAKVLANRELDKYGVSDYYKNLINNAKTVEGVKALIDEILAALP
For the molecule B5, the “change in enzyme activity of bound Ig-AP conjugate after irradiation with UV light” value is “much less signal decrease”.

B6: ProtL^Caf369: ProtL-ABD fusion protein modified with Caf at position 369 (protein)
chain: MKEEVTIKVNLIFADGKTQTAEFKGTFEEATAKAYAYADLLAKE[Caf]GEYTADLEDGGNTINIKFAGGAVDANSLAEAKVLANRELDKYGVSDYYKNLINNAKTVEGVKALIDEILAALP
Turning to B6, the “change in enzyme activity of bound Ig-AP conjugate after irradiation with UV light” value was “much less signal decrease”.

B7: ProtL^Caf337: ProtL-ABD fusion protein with Caf at position 337 and mutations Tyr361Asn and Leu365Ser (SEQ ID NO: 86) (protein)
chain: MKEEVTIKVNLI[Caf]ADGKTQTAEFKGTFEEATAKAYANADLSAKENGEYTADLEDGGNTINIKFAGGAVDANSLAEAKVLANRELDKYGVSDYYKNLINNAKTVEGVKALIDEILAALP
B7: the “change in enzyme activity of bound Ig-AP conjugate after irradiation with UV light” value is recorded as “clear decrease” and the “affinity for the IgG (ELISA signal)” value is recorded as “showed affinity for the IgG”. Moreover, where the note is “after irradiation with UV light at 365 nm”, the “dissociation constant for the complex with the anti-6×His antibody” value is “too low to deduce a dissociation constant”. In addition, the Kd (ground state (no UV), curve fit of the ELISA data, read-out: dissociation constant for the complex with the anti-6×His antibody) is roughly 140 nM. Also, for the setting “listed as Caf337”, the “affinity for the IgG (ELISA signal)” value is “high affinity”.

Values taken from patent publication US20210079037A1, “LIGHT-SWITCHABLE POLYPEPTIDE AND USES THEREOF” (TECHNISCHE UNIVERSITÄT MÜNCHEN, priority 2017, published 2021).
